According to the nanobody polyreactivity screen of Harvey et al. (2022):

experiment: yeast display, Sf9 membrane polyspecificity reagent, FACS + sequencing; frameworks hold sequencing errors
In short: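 Galactose-induced (36–48 hours) yeast carrying a synthetic nanobody display library were exposed to 10% biotinylated, detergent-solubilized Sf9 membrane reagent at 4 °C for 1 hour. FACS followed streptavidin microbead enrichment, using low and high (top ~1%) gates for expression (anti-HA) and reagent binding (streptavidin). Colony PCR, MiSeq 2 × 250 sequencing and CDR-length filtering followed. Labels for polyreactivity reflect the gate of origin.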

Question: With “QVQVVDSGGGLVQAGGSLRLSCAASGSIFYVYAMGWYRQAPGKVWEFVAAIRWFSGSTYYADSVKWRYTISRDNAKNTVYLQMNSLKPEDTAVYYCAARKYKQGRFKYDYWGQGTQVTVSS” as the sequence, how does the “polyreactivity (PSR sort gate)” value read?
Answer: high polyreactivity

Question: With “QVQVVESGGGIVKAGGSLRLSCAPSGSTFYYYAMGWYRQAPRKERELVATISWSGDSTYADSVKGRFTISRDNSKNTVYLQLTSLKPEDTAVYYCATCGDWWGFRYDYWGQCTQVTVSS” as the sequence, how does the “polyreactivity (PSR sort gate)” value read?
Answer: low polyreactivity

Question: For “QVQVVESGGGLVHAVCSLRLSCAASGRIFSTYALGLYRPAPGKERELVAAISSSGARTYYADSVKGRFTISRDNAKNNVYLQMNSLKPEDTSVYYCAAPPYNRPGYGYDYWGQGTQVTVSS”, which “polyreactivity (PSR sort gate)” value is on record?
Answer: high polyreactivity

Question: For “QVQVVESGGGLVQAGCSLRLSCAASGSTFQANDMGLYRQAPGKERELVAAISTGGSSTYYADSVKGRFTISRDNEKNTFFLQMNSLKPEDTAVYYCAVDGLGGREGYWGQGTQVTVSS”, which “polyreactivity (PSR sort gate)” value is on record?
Answer: high polyreactivity

Question: For “QVQVVESGGGLVQAGGSLRLICAASGRIFDSNAMGWYRQEPVKERELVARIDPGDDTNSADSVKGRFTISRDNAKNTLYLQMNSLKPEDTAVYYCATDPDYVLYRTAYYEYDYWGQGTQVTVSS”, which “polyreactivity (PSR sort gate)” value is on record?
Answer: low polyreactivity

Question: For “QVQVVESGGGLVQAGGSLRLSCAASGFTFPYYALGLYRQAPGKERELVAAITTGGSTYYSDSVKGRFTISRDNAKNTVYLQMNSLKPEDTAVYYCATGPSLWYRSSFRGEGDYWGQGTQVTVSS”, which “polyreactivity (PSR sort gate)” value is on record?
Answer: low polyreactivity

Question: Which “polyreactivity (PSR sort gate)” value does the source give for “QVQVVESGGGLVQAGGSLRLSCAASGLIFVYYAMGWYRQAPGKERELVAGITRGGGTNYADSVKGRFTISRDNAKNSFYLQMNSLKPEDTAVYYCAADDLPGMDYWGQGTQVTVSS” here?
Answer: low polyreactivity

Question: For “QVQVVESGGGLVQAGGSLRLSCAASGRIFNRNAMGWYRQAPGKERELVAAITRGGRTNYADSVKGRFRISRDNAQNTVYLQMNSLKPEDTAVYYCAAAYYGSHGRYDYWGQGTQVTVSS”, which “polyreactivity (PSR sort gate)” value is on record?
Answer: high polyreactivity

Question: With “QVQVVESGGGLVQAGGSLRLSCAASGRIFYVYAMGWYRQAPGKERELVAAITISGGSTYYADSVKGRFTISRDNAKNTVYLQMNSLKPEDTAVYYCATDRSSHWYDYWGQGTQVTVSS” as the sequence, how does the “polyreactivity (PSR sort gate)” value read?
Answer: low polyreactivity

Question: With “QVQVVESGGGLVQAGGSLRLSCAASGRTFYPYAMGWYRQAPGKERELVAAISSSGGSTYYADSVKGRFTISRDNAKNTDYLPMNSLKPEDTAVYYCAAVASKYKYTGGMDYWGQGTQVTVSS” as the sequence, how does the “polyreactivity (PSR sort gate)” value read?
Answer: high polyreactivity

Question: With “QVQVVESGGGLVQAGGSLRLSCAASGSIFDRNAMGWYRKAPGKERELVAGISRSGGSTNYADSVKGRFTISRDNAKNPVYLQMNSLNPEDTAVYYCAASRVVWVGRPWYQVRGDYWGQGTQVTVSS” as the sequence, how does the “polyreactivity (PSR sort gate)” value read?
Answer: high polyreactivity

Question: Which “polyreactivity (PSR sort gate)” value does the source give for “QVQVVESGGGLVQAGGSLRLSCAASGSIFPVYAMGWYRQAPGKERELVAAISSGGSTNYADSVKGRFTISRDNAKNTVYLQRNSLKPEDTAVYYSARRWYYVRHGYWGQGTQVTVSS” here?
Answer: high polyreactivity

Question: For “QVQVVESGGGLVQAGGSLRLSCAASGSIFRDNAMGCYRQAPGKERELVASIRSSGGRTYYADSVKGRFTISRDNAKNTVYLQMNSLKPEDTAVYYCARRWYPVTPYARMYYWGQGTQVTVSS”, which “polyreactivity (PSR sort gate)” value is on record?
Answer: low polyreactivity

Question: With “QVQVVESGGGLVQAGGSLRLSCAASGSTFEYNAMGWYRQAPGKERELVASSTNYADSVKGRFTISRDNATNTVYLKMNSLKPEDTAVYYCAREQGVNRNHDYWGQGTQVTVSS” as the sequence, how does the “polyreactivity (PSR sort gate)” value read?
Answer: low polyreactivity

Question: Which “polyreactivity (PSR sort gate)” value does the source give for “QVQVVESGGGLVQAGGSLRLSCAASGSTFSWYAIGWYIQAPGKDRELVARISSGDRTNYADSVKGRFTITRDNAKNNVYLEMNSQKPEDTAVYYCNADYGQPSYYDDGDYWGQGTQVTVSS” here?
Answer: low polyreactivity

Question: For “QVQVVESGGGLVQAGGSLRLSCAGSGSIFYFYAMGWSRQAPGKARELVATITSGGRTYYADSVKGRFTISRDNAKNTVYLQMISLKPEDTAVYYCNSRPVSYRYSSYIFNYWGQGTQVTVSS”, which “polyreactivity (PSR sort gate)” value is on record?
Answer: high polyreactivity

Question: Which “polyreactivity (PSR sort gate)” value does the source give for “QVQVVESGGGLVQEGGSLRLSCSASGRIFGVNAMGWYRKAPGKERELFAAISRSGGSTYYADSVKGRFTISRDNEKNTVYLQMNSLNPEDTAVYYCAAGGRRYDDDYWGQGTQVTVSS” here?
Answer: high polyreactivity

Question: For “QVRLLETGGGLVQAGGSLRLSCAPSGSTFTDYDMGWYRPAPGKERELVAAITSGGSTNYADSVKGSFTISRDNAKNTVYLQMNRLKPEDTAVYYCAASYWDTEPGYREYDYWGQGTLVTVSS”, which “polyreactivity (PSR sort gate)” value is on record?
Answer: low polyreactivity

Question: For “QVRLQESGGGLVQAGGSLRLSCAASGSISLTYYMDWSRQAPCTVREFVATITAGATTNYADSVKGRFTISRDNAKNTVYPQMNSLKPEDTEVYYSAVRAEHQVTLIYLGQGTQVTVSS”, which “polyreactivity (PSR sort gate)” value is on record?
Answer: low polyreactivity

Question: For “QVRLVESGGGLVQAGGSLRLSCAASGRIFGYYTMGWYRQAPGKERELVADNNRDGSTYADSVKGRFTLSRDNAKNTVYLQMNSLKPEDTAVYYCNAQYDSAYGLGFFIGYFSQYDYWGQGTQVTVSS”, which “polyreactivity (PSR sort gate)” value is on record?
Answer: low polyreactivity

Question: Which “polyreactivity (PSR sort gate)” value does the source give for “QVRLVESGGGLVQAGGSLRLSCAASGRIFVYNAMGWYRQPPGKERELVASISWSGDSTYADSVKGRFTISRDNAKNTVYLQMNSLKPEDTAVYYCAAYSQADYQNMDYWGQGTQVTVSS” here?
Answer: low polyreactivity

Question: For “QVRLVESGGGLVQAGGSLRLSCAASGSIFYFNAMGWYRQAPGKERELVATIRYRGGRTYADSVKGRFTISRDNAKNTVYLQMNSLKPEDTAVYFCNTYARYAYLTGRMDYWGQGTQVTVSS”, which “polyreactivity (PSR sort gate)” value is on record?
Answer: high polyreactivity

Question: With “QVRLVESGGGLVQAGGSLRLSCAASGSTFNNYDMGWYRQAPGKERELVAAYADSVKGRFTISRDNAKNTVYLQMNRLKPEDTADYYCAAVREKTLYYLSRFDYWGQGTQVTVSS” as the sequence, how does the “polyreactivity (PSR sort gate)” value read?
Answer: low polyreactivity

Question: For “QVRLVESGGGLVQAGGSLRLSCAASGSTFQINAMGWYRQAPGKEREFVAAITVSSGSTYYADSVKGRFTISRDNAKNTVYLQMNSLKPEDTAVYYCAATSKPLGLQTYGYWGQGTQVTVSS”, which “polyreactivity (PSR sort gate)” value is on record?
Answer: low polyreactivity

Question: With “QVRLVESGGGLVQAGGSLRLSCADSGSTFTTYAIGWYRQEPGKERELVAAISSGGDTKYADSVKGRFTISRDNAKNTVYLQMNSLKPEDTAVYYWNVVSFRYYYKYGYCGQGTQVTVSS” as the sequence, how does the “polyreactivity (PSR sort gate)” value read?
Answer: high polyreactivity

Question: For “QVTLVESGGGLVQAGGSLRLSCAASVLIFYSYAMGWYRQAPGKERELVAAISSGTRTYYADSVKGRFTISRDNAKNTVYLQMNSLKPEDTAVYYCAAVDAHKKRYPPSGRLYGYWGHGTQVTVSS”, which “polyreactivity (PSR sort gate)” value is on record?
Answer: high polyreactivity

Question: Which “polyreactivity (PSR sort gate)” value does the source give for “WLLLMGWYRQPPGEERELVAGINDGASTNDADSVKGRFTISRDNARNTVYLKMNSLKPGDTAVYYCAGWQPVLIWFYYWGQGTQVTVSS” here?
Answer: high polyreactivity
